Literature values as cited in paper PMC4089558.

Target: CFP10 (Mycobacterium tuberculosis) (UniProt P9WNK5)
Sequence (P9WNK5 2-100): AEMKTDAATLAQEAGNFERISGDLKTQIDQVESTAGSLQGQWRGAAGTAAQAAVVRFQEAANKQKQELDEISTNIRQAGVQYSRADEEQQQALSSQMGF

Chain of ESAT-6 (P9WNK7 2-95): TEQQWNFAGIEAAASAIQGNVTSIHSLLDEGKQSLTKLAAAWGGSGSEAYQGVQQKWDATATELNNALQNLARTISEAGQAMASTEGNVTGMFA

Substance: ESAT-6 (from UniProt P9WNK7)
- Kd: 11 nM
